For one molecule, Kd results are on record in publication PMC3896865.

Some targets named below: EGR1 DB_H382E (human, UniProt P18146 331-430, H382E); EGR1 DB_H382A (human, UniProt P18146 331-430, H382A); EGR1 DB_H382K (human, UniProt P18146 331-430, H382K); EGR1 DB_H382R (human, UniProt P18146 331-430, H382R).
Holding throughout (assay): ITC
In general terms: ITC needs no label: the signal is the heat of the interaction.

The target of series [1] is T1, EGR1 DB_WT (Zif268 DNA-binding domain) (human, UniProt P18146 331-430).
Series [2] deals with T1, EGR1 DB_WT (Zif268 DNA-binding domain). This is another data set of the same source.
The target is the same in series [3]. This is another data set of the same source.
The target is the same in series [4]. The source holds these as a separate data set.
Series [5] shares this target. This is another data set of the same source.
Series [6] shares this target. The source holds these as a separate data set.
For series [7] the target is unchanged. The source holds these as a separate data set.
Series [8] shares this target. The source holds these as a separate data set.
The target is the same in series [9]. This is another data set of the same source.
The target is the same in series [10]. This is another data set of the same source.

Like-named read-outs stand apart in the source and are kept apart here.

B1: ZRE duplex (15-mer) (dsDNA)
DNA 1: ATAGCGTGGGCGTTT
DNA 2: AAACGCCCACGCTAT
Consider B1, for which the dissociation constant (Kd) is 345 nM in series [1]; 324 nM in series [2]; 758 nM in series [3]; 314 nM in [4]; 266 nM in series [5]; 421 nM in [6]. For the same molecule, the Kd stood at 755 nM in [7]; 1030 nM in series [8]; 1330 nM in series [9]; 2300 nM in the series with EGR1 DB_H382E; 1610 nM with EGR1 DB_H382A; 2260 nM with EGR1 DB_H382K. In addition, the Kd in the series with EGR1 DB_H382R came to 2040 nM; in [10] it was 271 nM.

For orientation: Kd means the constant that tells how readily two partners part at equilibrium. A lower Kd goes with a tighter complex.
